Assay results as given in the supplement of paper PMC12636428.

Test system: Saccharomyces cerevisiae
Test: transcriptional activation domain activity (GFP:mCherry ratio, weighted mean of sorted bins, harmonized to initial dataset scale) (arbitrary fluorescence ratio units); higher = stronger transcriptional activation
Conditions: beta-estradiol 1 µM; induction time 4 h
Method in brief: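 After a 1:5 dilution into SC with 1 uM beta-estradiol and 4 hours at 30 °C, yeast diploids carrying a GFP reporter and URA3-integrated barcoded tiles were sorted into 8 bins by GFP:mCherry ratio. The tiles were fused to an estradiol-inducible synthetic transcription factor. Barcodes were sequenced, tiles below 50 reads were discarded, and activation activity was taken as the read-weighted mean of bin median fluorescence, averaged across barcodes and linearly mapped onto the initial dataset scale.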

Sequence | transcriptional activation domain activity
ARAAAQNDDGTPKKGRGRPRKAAAAAATSDEEPAATTPKEPKKRGRKPKAVEP | 36000
CVWVYTEIFPEFVWLLIFKLLKSMPEMTRRTGIVVIRSLVSCGIQIGDTFTHK | 50600
WPFDESIERNFSTTATAATGESKFDINDNCNRINSKSYSKTNSMNGNGMNNSN | 28400
YGCNELIFNPLIDWWRKGPITRQLRTFMWSDAPLHYKIGMLSYMFSYYALSGA | 36300
MSLAYLILGFPIPPFLPYFLDVVLSPLSRFSPLPLVFPFVLWCPTSLPLFTSF | 51400
ANQCGEVDMLSRILLIVVTYLVILRRYRDALDIIERQALPMTLALGRPLWIGR | 62400
MKVFCSSFPFSNPILFYFSLLQIIFDYWLYNFMGSFYFWLPLAPFFFFFFLVL | 47500
PSNSLEDSIQQTVKARRKLSARPVLRVRIPNNNFSSNSAIPSEPSSASSTSAN | 19300
GRRRRKGEESRGRKNAEERKGGRKEGPGAGRVEAEGRAEATRTEKGEEGGSGG | 34800
GTRAPAVHRDQRGPVDSQERAGEDVVRRERSVGQGRRAVRGARLVYAGAAALE | 51500
MAFFYLCYIIISLVLYLFFLCSSFCCFMIHEFSLLSSLSQFSQRVYIGWSFFR | 58300
KEENKKDDLKEATKKGRKPRAAKEEAKEEAEGVKPKGRKRKATEEASDEIVVA | 23400
MDEVGLSSMRYYHFSIFNVLIVFLLGTTFLNTIIDLVYTPTSILTLLANSLPQ | 51800
GSERRERRSERRRSRDRSGERRRSKREEGSSRRPQSPEDEDRQQRRHRRHRHR | 16500
YSIYVYRYFLYQWGDLCYMALHPTTSSLIGVIVCKLEPHRSGPFRGYIAMLAV | 42600
EIVDPMQSWLPFQPEASDNVLPDENFFLDDSLFTFGDTLTPNFGPVEWYDLLA | 140000
IPSHQFAFGRFMALSSTLGCKFFFSSFNSFFYIFFITLFFSLLLLPFFKNLFF | 39300
MPPPRKPHRKSRYGCIQCKRRHVKCDEEKPCRRCLDREEQCSLKPDVAAADIT | 17600
IGLPGFTWVYVARYGSVFNLLGLGVIGVVWNWGLAAVSISNYGNCWERLINWR | 54300
FAGIYSLVHFRKVWSSDHFILRKFMFMIEDLYQLYNLFFSWVAMGNFYLIFYI | 67800
KRQKSRKGSESDAESEGEGDRGGARAYGKSRPQGRSADARADRKSAKGARAPQ | 34200
EKEAVVKDTASSTRAKTTRSKPKAAPAAAEPPKTATRGRGAAKLAADKPAPKT | 23400
MLLTLLLLYILRRCAHTSYIFFSHSGFDFGHLIWGWVSCRLLTFWFLLYSSLL | 33100
RLWLVRGPFTELFRRFLFSNIRFTSKVTIISYIGTYYAIGAAWIMTTANYLAI | 47600
MMGLRELHAASREFAMLFWREPRLDLALFLLLFLFFFVLFLFFCLFFFFCLVF | 15100

Sequence | transcriptional activation domain activity
CGRCRCCRGLLPLYPHHPFSFFVLLCIPGMFLLLLVHWMFLSFVSGFAILVPE | 79500
PQRLDMIHFPLIYVGCVGVLLFNPFKIFFGSARMYFLNTMWRLAFSGFYHVEF | 40000
MATFLSCLRPFVCSFFLFSFLFRPWPWVYIHVGFGGNSCSTFDFLSIFFVTFF | 43300
MSTEVKAAHAGKARQKAWKPKVKTGCVTCRNRRVKCDEAKPDCRRCVAAGRKC | 10800
KGKSKERKTESASTSGSEAKESEAAPKEEKEDAKKEDDKKEKAEEKTEEKAEE | 51500
HHTLPYRFRLDGHAAYLGLFIHFLSVLVVVYIFRLEVCVRYRPGWMRCQCWWR | 81600
PLLFLLNRLPIHPPLLIVPVLLWFYCRLTIYSILFWLNNLMVQKLSLLIMSIF | 34500
VCVLHLIVIALSLTDLILPSLIWGLTAIFLGVYAIVQKLSIALIVQPQLFGTL | 65700
GASYVIFCLRYYYKGKRRRLTNRLVAYKRALLLVQFVFTHHKWPSYIVILESY | 46200
MTEDEGKPRRKRARLACTACNARRVKCNVTESRPCHNCIAGNVLCETVPSRRG | 36100
LSAFCCTLVDRYLLSTEYSHFSICLVRSVLNWVARGISSLLLLHFFLLLVMYE | 50600
MSFFFFFIRYFPWLFDFWLLAFVFYCLLIPRLNIFFLSFSCFNFLVFSLLLVG | 56000
MLLRRAVSLGVEGFFIFFYFLLMGLHCICLRGSSPWVDMFLFFVFFVSLVGFF | 72200
MMAEGERPLATMCSVLSVCYVCVRLVLSNLIWIVLCSSPRPLPMALLSLLAHR | 32900
MASPASSTEQQRAAKRKSHRKSRNGCFQCKQRHSKVSQSSTLLAAAASNLSRT | 27100
KVRAKEIVILPSEEDDNYKPLDTSNATTSSSEPRVDVVQEGLFREALNENDGK | 32500
SLLAKCDNGDVLKLQEAIEEDDAAREERERAERAAAALKREKEGSASRVLVTG | 38800
AAKPKDRIKYWNIVPGDRVRITGDKEGKLLEVAKINKLSNRVYLKGATTKAGS | 44400
LCFVFVLNIQAVLAVLWVIATKWIVIGRRRDGQYAWDSSSYCQRWQLHLVLSR | 71600
TIVLSAMQVGLATQFLVDDYAFSMASYVFSVFAILAPLSAIAAILFVLVLLFA | 49900
NQRLREDGVDEIELDIISKLHPSRKDTAPRDIKPIPASKRGEISSKFEKLHEQ | < 6570
AEAQEGRKKDAAAAAEKKEEESPKKEEESAAGEEKQAAPKKKPKKLERRGGAA | 41300
SLPVSKGVWGSVGRVILLIFTAKPLEFCIQLTLVDFVEVDAHTMRVIHCRKVR | 28100
DSAMRAIYSFRNSYIAFILFNGSIYYYVARFFGFYHKVLDSPIVGFRWVDLHL | 58300
LQAARSADIAISQFRYLKKLLLVHGAWSYRRLATLILYSFYKNVVLYMTQFWF | 65100

Sequence | transcriptional activation domain activity
FPHNETLPALGQDGINEDNLNETIDNMLIFDFLDDGSENNQVKYSRIIPPDIR | 89000
FSSLEDSLPSSISPPIQTTSTINFNWCFKEEKNNDLKCKWKECPESCSSLFDL | 69800
QVLVLLLILLVFLVFQFLQMLSFLLKLPFVLKLEILLVLLVTKLWVFLFHLLL | 41500
PLEKLMCLRTSLSLLSAAADKYMQENRLTVFHTSVASDDLILLLACALTQTHL | 50200
MRGLCRSLKLCKLFVTMFDGWMMLFSFFFFFLFLLFFYYYSCCSDGFLLCFFL | 42500
FGFFSFSSFFFFLVLLYLFSFFFFLDFLSFSFLFPDIHSRIVINHNLVGNFFF | 44600
GGGGGGAEGARGANESGGRGDGRRRGAGARARARQGGRGRGGGGRGGTKGGRG | 9940
FLVAFLLMCLHSPDKSTVAMLILGVFSLLLLLFWAASLSFDGQPSKYGWLLRH | 50200
DLQRHLLKDHVSQDFKHPMEPLACNWEDCDFLGDDTCSIVNHINCQHGINFDI | 53200
GVLALSPCDDTTLKATMGVIEELLIYLYFAGQMRELFYWACRVVNLSVHHGHA | 69100
ALSAWIIIQGYRVQWKTILLHDNLFVFTAASKSWVFAHAVYRFVLLTLPCFGS | 40700
SLVLQTVFLYMVERVDICIDYLKVHRRFREAEVYLLRFQQCMTRAMTLIKMYF | 75700
LLILLLAFKKTSKEDPYEAIRLMSLAIGDQYAQGPDRFRLSCQWAVLARMISH | 38400
NQFSKPQVWSVGVFWWSIWLSCVWLGWWLCRLASFLAPRVLKFTIAIWMLVIY | 40800
DDEHEDRHREGRGSRGDRTRSASADSKHRSSRRDKEKHRSSRSHRDRSKEQRR | 37400
QRIIIGSKLILLTRSLLICLLWSLKMAVLDLLAKLMLNMPFERKLIYTLWAIL | 41600
VRQQLKIRLIKLFRRFYPYVNFAYYASGLVYNVLYLFNKTKYYSPWLHLIGVQ | 52200
QKLSWIDNSGFRWLIMPFIWSSFFIQWLAVFFEICIVILQLRVIAWWLGWLVC | 60700
ISLCLLHCVIMVFGLGLQLLVPSIYTRIEHVSYESTWNFAYYCAGWFMLKVCI | 38100
MYICIYLLLGFVVWGISLICLVVIVILYILDNSFCSPYTSCSTSFPFLISLFY | 40300
MSTGVSSFLQYVFLFTPYFIFSYFLAVDCWCFSLPLFCLAIPSIFLFLFLFLL | 24900
AINYASMCKQYERAEYTQRLMIELDPVLRHSWSRRLATWRLTETWTHYLVLNI | 68900
EFILHTMPVVAIKDTHAWNGNTPVELGLLGFWNLIVVWLKLLIPWRFFRLWAL | 63800
PIEYNTWLIFRQFVDIILLNDFVAYCMFAFSHFRVPNNLSITMHLLRWICGLA | 42000
